Reference: paper PMC8501605

Target: T1, pseudokinase mixed lineage kinase domain-like (MLKL) (human (endogenous in post-mortem hippocampus)), Q8NB16
T1 chain: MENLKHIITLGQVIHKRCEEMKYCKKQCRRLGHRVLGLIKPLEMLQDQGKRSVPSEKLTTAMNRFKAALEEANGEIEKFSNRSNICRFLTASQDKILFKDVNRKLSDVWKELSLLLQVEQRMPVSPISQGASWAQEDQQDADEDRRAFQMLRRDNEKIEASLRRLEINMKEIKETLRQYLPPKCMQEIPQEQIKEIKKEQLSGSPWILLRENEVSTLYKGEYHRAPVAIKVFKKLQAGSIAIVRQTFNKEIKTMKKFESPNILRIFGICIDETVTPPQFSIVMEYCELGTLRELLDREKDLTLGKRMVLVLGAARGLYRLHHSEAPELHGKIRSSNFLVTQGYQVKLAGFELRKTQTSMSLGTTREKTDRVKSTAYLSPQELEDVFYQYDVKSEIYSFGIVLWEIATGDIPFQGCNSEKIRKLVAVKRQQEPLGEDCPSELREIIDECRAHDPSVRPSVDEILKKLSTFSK
Assay: non-reducing gel and western blot; hippocampal grey matter extracted in native conditions (TBS, 0.1% Triton X-100), run on 7.5% gel in non-reducing conditions, blot for MLKL; AD (n = 14) and control (n = 8) cases
Conditions: remark: other sources report otherwise

stoichiometry N: 4
B1: pseudokinase mixed lineage kinase domain-like (MLKL), Q8NB16 1-471 (natural protein)
chain: MENLKHIITLGQVIHKRCEEMKYCKKQCRRLGHRVLGLIKPLEMLQDQGKRSVPSEKLTTAMNRFKAALEEANGEIEKFSNRSNICRFLTASQDKILFKDVNRKLSDVWKELSLLLQVEQRMPVSPISQGASWAQEDQQDADEDRRAFQMLRRDNEKIEASLRRLEINMKEIKETLRQYLPPKCMQEIPQEQIKEIKKEQLSGSPWILLRENEVSTLYKGEYHRAPVAIKVFKKLQAGSIAIVRQTFNKEIKTMKKFESPNILRIFGICIDETVTPPQFSIVMEYCELGTLRELLDREKDLTLGKRMVLVLGAARGLYRLHHSEAPELHGKIRSSNFLVTQGYQVKLAGFELRKTQTSMSLGTTREKTDRVKSTAYLSPQELEDVFYQYDVKSEIYSFGIVLWEIATGDIPFQGCNSEKIRKLVAVKRQQEPLGEDCPSELREIIDECRAHDPSVRPSVDEILKKLSTFSK
